# Laboratory results from patent US6531296B1, “Nuclear tyrosine kinase Rak” (The University of North Carolina at Chapel Hill, priority 1995, dated 2003).
# T1: pRb (Homo sapiens, UniProt P06400)
# T1 construct: incubated with cell lysates from SK-BR-3 breast cancer cells; endogenous in cells; host or cells: SK-BR-3
# T1 sequence (P06400 1-928): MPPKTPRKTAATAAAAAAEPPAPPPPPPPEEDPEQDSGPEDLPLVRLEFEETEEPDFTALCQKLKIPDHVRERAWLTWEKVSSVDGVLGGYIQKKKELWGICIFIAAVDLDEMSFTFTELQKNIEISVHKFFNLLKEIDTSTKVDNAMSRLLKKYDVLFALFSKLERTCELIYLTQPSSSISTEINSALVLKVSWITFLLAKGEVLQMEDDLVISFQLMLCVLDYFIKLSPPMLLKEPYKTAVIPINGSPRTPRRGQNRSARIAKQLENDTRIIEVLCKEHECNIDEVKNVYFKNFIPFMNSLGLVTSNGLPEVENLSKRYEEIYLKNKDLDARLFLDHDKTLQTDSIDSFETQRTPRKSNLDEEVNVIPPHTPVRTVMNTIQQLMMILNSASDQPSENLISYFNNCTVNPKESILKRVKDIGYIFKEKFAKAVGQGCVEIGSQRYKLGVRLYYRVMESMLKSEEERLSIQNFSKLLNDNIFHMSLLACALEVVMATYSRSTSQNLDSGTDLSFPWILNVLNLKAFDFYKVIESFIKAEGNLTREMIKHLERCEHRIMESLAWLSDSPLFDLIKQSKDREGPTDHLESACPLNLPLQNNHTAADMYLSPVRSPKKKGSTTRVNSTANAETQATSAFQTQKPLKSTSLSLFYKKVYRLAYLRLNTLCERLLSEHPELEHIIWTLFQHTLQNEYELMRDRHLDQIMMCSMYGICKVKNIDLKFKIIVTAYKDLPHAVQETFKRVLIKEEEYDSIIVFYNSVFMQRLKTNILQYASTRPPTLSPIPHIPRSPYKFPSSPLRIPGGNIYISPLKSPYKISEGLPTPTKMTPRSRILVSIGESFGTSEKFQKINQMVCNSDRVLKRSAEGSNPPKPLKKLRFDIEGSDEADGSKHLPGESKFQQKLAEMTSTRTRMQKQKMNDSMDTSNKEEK
# B1: Rak-NT:GST: first 110 amino acids of Rak (SEQ ID NO:2) as bacterial fusion protein with Glutathione-S transferase (protein)
# chain: MSNICQRLWEYLEPYLPCLSTEADKSTVIENPGALCSPQSQRHGHYFVALFDYQARTAEDLSFRAGDKLQVLDTLHEGWWFARHLEKRRDGSSQQLQGYIPSNYVAEDRS
# modifications: left off: a dimerising Fc or GST; large carriers; small tags and cut ends
# Experiments:
# CDC2 [1] = molecular target: T2, CDC2 (Homo sapiens, UniProt P06493); experiment: In vitro kinase assay of immunoprecipitated CDC2 with Histone H1 as exogenous substrate; type: biochemical; set-up: incubated with immunoprecipitated CDC2; endogenous in cells
# Description: The 110 N-terminal amino acids of Rak were produced as a GST fusion protein (RAKNT:GST) and incubated with immunoprecipitated CDC2, and subjected to an in vitro kinase assay with Histone H1 added as an exogenous substrate, and analyzed by SDS-PAGE. […] This fusion protein was incubated with immunoprecipitated CDC2, and subjected to an in vitro kinase assay with Histone H1 added as an exogenous substrate, and analyzed by SDS-PAGE.
# The CDC2 binding domain of RAK appears to be between amino acids 86-110. Since the binding of RAK to CDC2 is exceptionally strong, the biological function of this interaction was explored.
# GAP-associated p62 = molecular target: T3, GAP-associated p62 (Homo sapiens, UniProt Q07666); experiment: Affinity precipitation from SK-BR-3 lysate with GST-RakNT; type: binding; details: SK-BR-3 cell lysate
# T3 construct: incubated with cell lysates from SK-BR-3 breast cancer cells; endogenous in cells; host or cells: SK-BR-3
# Description: (§1) For affinity precipitations, 250 ug of cell lysate was pre-cleared once with 25 ul of glutathione-sepharose beads (Pharmacia) then once with 25 ul of the same beads containing 2 ug/ml Glutathione S-transferase. The lysate was then incubated with 25 ul of GST-RakNT bound to glutathione-sepharose, in a total volume of 500 ul of NP-40 lysis buffer, for 3 hours at 4° C. The beads were then washed three times in NP-40 Lysis Buffer and the bound proteins were eluted with SDS-PAGE sample loading buffer. pRb binding was assessed by Western blot analysis with the G3-245 antibody at 1 ug/ml.
# (§2) Results and Discussion: To test whether Rak and pRb physically interact, the first 110 amino acids of Rak (first 110 amino acids of SEQ ID NO:2), where the predicted interacting peptides reside were prepared as a bacterial fusion protein with the Glutathione-S transferase gene (Rak-NT:GST), and incubated with cell lysates from SK-BR-3 breast cancer cells, and bound proteins were analyzed by Western blotting. Glutathione-S transferase alone was used as the control. […] In contrast, binding of Rak to proteins that interact with the SH3 domains of other members of the Src family, such as GAP-associated p62 or Shc, was not found (data not shown).
# CDC2 [2] = molecular target: T2, CDC2; experiment: Affinity precipitation from BT474 lysate with Rak N-terminal GST fusion protein; type: binding; set-up: endogenous in cells; host or cells: BT474; details: BT474 cell lysate
# Description: as §1
# (§3) Because the N-terminus is frequently responsible for protein-protein interactions in Src-related kinases, the proteins that bind to this region were characterized. The N-terminal 110 amino acids of Rak were expressed as a bacterial fusion protein with Glutathione S-transferase, and were incubated with cell lysates from BT474 breast cancer cells. In this assay, binding of RAK to the cyclin-dependent kinases Cdc2 and Cdk4 was detected, but binding to Cdk5, Cdk6, or Cdk7 was not detected (data not shown).
# Cdk7 = molecular target: T4, Cdk7 (Homo sapiens, UniProt P50613); experiment: as above; type: binding; details: BT474 cell lysate
# T4 construct: endogenous in cells; host or cells: BT474
# Description: as §1, §3
# Cdk5 = molecular target: T5, Cdk5 (Homo sapiens, UniProt Q00535); experiment: as above; type: binding; details: BT474 cell lysate
# T5 construct: endogenous in cells; host or cells: BT474
# Description: as §1, §3
# Cdk6 = molecular target: T6, Cdk6 (Homo sapiens, UniProt Q00534); experiment: as above; type: binding; details: BT474 cell lysate
# T6 construct: endogenous in cells; host or cells: BT474
# Description: as §1, §3
# Cdk4 = molecular target: T7, Cdk4 (Homo sapiens, UniProt P11802); experiment: as above; type: binding; details: BT474 cell lysate
# T7 construct: endogenous in cells; host or cells: BT474
# Description: as §1, §3
# pRb = molecular target: T1, pRb; experiment: Affinity precipitation from SK-BR-3 lysate with GST-RakNT, Western blot for pRb; type: binding; details: SK-BR-3 cell lysate, GST alone as control
# Description: Affinity Precipitations. DNA fragments encoding the amino terminal region of Rak were prepared using the polymerase chain reaction with Pyrococcus furiosus DNA polymerase (Stratagene), and cloned into the pGEX-4T plasmid (Pharmacia). Rb fusion proteins encoding amino acids 379-928 (RbABC, containing the A/B pocket region and the COOH-terminal domain) and 780-928 (RbC for COOH terminal domain only), were prepared similarly. The GST fusion proteins were induced and purified according to the manufacturer's instructions, and were analyzed by SDS-PAGE to ensure that an equal amount of protein was used for the affinity precipitation procedure.
# For affinity precipitations, 250 ug of cell lysate was pre-cleared once with 25 ul of glutathione-sepharose beads (Pharmacia) then once with 25 ul of the same beads containing 2 ug/ml Glutathione S-transferase. […]
# Results and Discussion: To test whether Rak and pRb physically interact, the first 110 amino acids of Rak (first 110 amino acids of SEQ ID NO:2), where the predicted interacting peptides reside were prepared as a bacterial fusion protein with the Glutathione-S transferase gene (Rak-NT:GST), and incubated with cell lysates from SK-BR-3 breast cancer cells, and bound proteins were analyzed by Western blotting. […]
# Shc = experiment: Affinity precipitation from SK-BR-3 lysate with GST-RakNT; type: binding, human; details: SK-BR-3 cell lysate
# Description: as §1, §2
# T2 sequence (P06493 whole entry, the tested form may be a part): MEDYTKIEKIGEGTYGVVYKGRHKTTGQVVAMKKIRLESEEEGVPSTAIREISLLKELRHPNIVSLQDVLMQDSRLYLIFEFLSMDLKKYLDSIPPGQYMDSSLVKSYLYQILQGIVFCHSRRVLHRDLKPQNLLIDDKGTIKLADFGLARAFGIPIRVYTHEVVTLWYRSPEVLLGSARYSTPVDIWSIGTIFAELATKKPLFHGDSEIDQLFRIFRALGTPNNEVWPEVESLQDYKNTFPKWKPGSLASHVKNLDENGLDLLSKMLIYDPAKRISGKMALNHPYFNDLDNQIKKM
# T6 sequence (Q00534 whole entry): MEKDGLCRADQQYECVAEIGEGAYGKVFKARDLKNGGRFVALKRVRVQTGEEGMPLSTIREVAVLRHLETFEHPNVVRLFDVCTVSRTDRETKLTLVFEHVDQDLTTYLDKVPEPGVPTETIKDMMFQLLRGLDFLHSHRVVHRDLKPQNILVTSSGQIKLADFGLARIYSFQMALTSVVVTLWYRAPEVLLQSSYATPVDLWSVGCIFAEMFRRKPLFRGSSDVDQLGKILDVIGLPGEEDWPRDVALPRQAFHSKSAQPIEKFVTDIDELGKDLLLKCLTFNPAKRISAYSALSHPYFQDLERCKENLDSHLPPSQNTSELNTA
# Chain of Shc (P29353 156-583 limits assumed): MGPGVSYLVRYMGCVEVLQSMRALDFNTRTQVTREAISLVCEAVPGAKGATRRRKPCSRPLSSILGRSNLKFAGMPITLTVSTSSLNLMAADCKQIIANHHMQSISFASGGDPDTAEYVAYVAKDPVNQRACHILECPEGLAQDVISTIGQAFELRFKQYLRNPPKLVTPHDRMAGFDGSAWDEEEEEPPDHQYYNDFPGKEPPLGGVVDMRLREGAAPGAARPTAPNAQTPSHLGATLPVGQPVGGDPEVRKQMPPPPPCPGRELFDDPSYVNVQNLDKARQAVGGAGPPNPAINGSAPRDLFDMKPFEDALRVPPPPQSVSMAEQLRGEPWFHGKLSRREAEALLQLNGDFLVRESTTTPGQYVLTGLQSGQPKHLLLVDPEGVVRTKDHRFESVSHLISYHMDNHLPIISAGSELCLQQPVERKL
# T5 sequence (Q00535 whole entry): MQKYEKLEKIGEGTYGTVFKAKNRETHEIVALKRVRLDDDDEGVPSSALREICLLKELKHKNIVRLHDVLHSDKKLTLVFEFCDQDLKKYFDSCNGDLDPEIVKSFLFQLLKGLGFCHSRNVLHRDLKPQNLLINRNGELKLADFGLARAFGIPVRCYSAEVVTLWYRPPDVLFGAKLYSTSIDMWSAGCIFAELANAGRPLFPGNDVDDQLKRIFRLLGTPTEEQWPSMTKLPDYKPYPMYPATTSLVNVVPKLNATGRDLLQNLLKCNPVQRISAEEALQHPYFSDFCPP
# T7 sequence (P11802 whole entry): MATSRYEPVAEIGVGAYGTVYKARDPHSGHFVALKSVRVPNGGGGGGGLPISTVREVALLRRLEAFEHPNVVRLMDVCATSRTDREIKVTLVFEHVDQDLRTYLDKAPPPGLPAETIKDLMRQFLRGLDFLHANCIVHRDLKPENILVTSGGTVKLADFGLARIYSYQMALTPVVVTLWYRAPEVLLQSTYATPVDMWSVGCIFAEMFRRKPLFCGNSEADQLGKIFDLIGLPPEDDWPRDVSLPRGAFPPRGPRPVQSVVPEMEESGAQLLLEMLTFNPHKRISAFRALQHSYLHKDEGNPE
# T4 sequence (P50613 whole entry): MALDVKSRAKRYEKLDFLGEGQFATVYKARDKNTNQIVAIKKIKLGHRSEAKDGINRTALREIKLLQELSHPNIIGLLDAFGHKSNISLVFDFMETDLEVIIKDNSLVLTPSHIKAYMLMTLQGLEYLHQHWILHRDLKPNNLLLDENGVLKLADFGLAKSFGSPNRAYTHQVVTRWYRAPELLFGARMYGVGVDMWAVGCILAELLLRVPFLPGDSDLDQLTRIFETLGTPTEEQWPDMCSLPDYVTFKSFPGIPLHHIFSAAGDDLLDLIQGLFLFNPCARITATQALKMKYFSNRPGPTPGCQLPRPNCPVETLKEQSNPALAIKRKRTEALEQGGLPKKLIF
# T3 sequence (Q07666 whole entry): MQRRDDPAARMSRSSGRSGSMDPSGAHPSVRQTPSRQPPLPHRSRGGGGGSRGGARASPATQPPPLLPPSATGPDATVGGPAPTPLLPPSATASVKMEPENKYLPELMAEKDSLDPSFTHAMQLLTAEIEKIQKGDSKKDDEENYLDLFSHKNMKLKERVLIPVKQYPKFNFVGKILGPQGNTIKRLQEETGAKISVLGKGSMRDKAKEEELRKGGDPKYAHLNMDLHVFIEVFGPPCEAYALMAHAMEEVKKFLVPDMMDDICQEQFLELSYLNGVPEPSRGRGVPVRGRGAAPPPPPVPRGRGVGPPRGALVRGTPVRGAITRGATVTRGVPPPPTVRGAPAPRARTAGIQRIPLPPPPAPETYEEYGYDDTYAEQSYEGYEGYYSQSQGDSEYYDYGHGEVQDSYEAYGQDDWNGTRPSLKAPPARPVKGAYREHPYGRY
molecule,measurement,setting,value
B1,inhibition of CDC2 histone H1 phosphorylation activity,CDC2 [1]; listed as RAK-SH3:GST,able to block CDC2 histone H1 activity
same,inhibition of CDC2 histone H1 phosphorylation activity,CDC2 [1]; listed as RakNT fusion protein,reduction of CDC2 histone H1 phosphorylation activity
same,binding to GAP-associated p62,GAP-associated p62,not found
same,binding to Cdc2,CDC2 [2],detected
same,binding to Cdk7,Cdk7,not detected
same,binding to Cdk5,Cdk5,not detected
same,binding to Cdk6,Cdk6,not detected
same,binding to Cdk4,Cdk4,detected
same,pRb binding,pRb,bound
same,binding to Shc,Shc,not found
